The results in this text go back to US20220275067A1 (PROTHENA BIOSCIENCES, published 2022).

B1: hu9F5VHv9/hu9F5VLv8_DIM7 (antibody, V domains shown)
VH: EVQLVQSGAEVKKPGATVKISCKASGFNIKDDYMNWVQQRPGKGLEWIGWIDPENGDTEYASKFQGRATMTADTSTNTAYMELSSLRSEDTAVYYCTTSNGWGQGTLVTVSS
VL: DIQMTQSPFSLPVTPGESASISCRSSKSLDHSNGITYLYWYQQKPGQSPQLLIYQKSNRASGVPNRFSSSGSGTDFTLKISRVEAEDVGVYYCAQNIELPLTFGQGTKLEIK
B2: hu9F5VHv9/hu9F5VLv8_DIM29 (antibody, V domains shown)
VH: B1 VH
VL: B1 VL with D30S, K56M
B3: hu9F5VHv9/hu9F5VLv8_DIM21 (antibody, V domains shown)
VH: B1 VH
VL: B1 VL with D30S, K56I, R59G, I97L
B4: hu9F5VHv9/hu9F5VLv8_DIM14 (antibody, V domains shown)
VH: B1 VH
VL: B1 VL with D30G, Q42G, K56G, R59T
B5: hu9F5VHv9/hu9F5VLv8_DIM12 (antibody, V domains shown)
VH: B1 VH
VL: B1 VL with D30G, Q42G, K56G, I97G
B6: hu9F5VHv9/hu9F5VLv8_DIM15 (antibody, V domains shown)
VH: B1 VH
VL: B1 VL with D30G, Q42G, K56G, R59T, I97G
B7: hu9F5VHv9/hu9F5VLv8_DIM19 (antibody, V domains shown)
VH: B1 VH
VL: B1 VL with D30S, Q42I, K56I
B8: hu9F5VHv9/hu9F5VLv8_DIM27 (antibody, V domains shown)
VH: B1 VH
VL: B1 VL with D30L, K56G
B9: hu9F5VHv9/hu9F5VLv8_DIM13 (antibody, V domains shown)
VH: B1 VH
VL: B1 VL with D30G, Q42G, K56G, I97L
B10: hu9F5VHv9/hu9F5VLv8_DIM25 (antibody, V domains shown)
VH: B1 VH
VL: B1 VL with D30G, Q42I, K56E, I97G
B11: hu9F5VHv9/hu9F5VLv8_DIM16 (antibody, V domains shown)
VH: B1 VH
VL: B1 VL with D30G, Q42G, K56G, R59T, I97L
B12: hu9F5VHv9/hu9F5VLv8_DIM9 (antibody, V domains shown)
VH: B1 VH
VL: B1 VL with D30G, R59G
B13: hu9F5VHv9/hu9F5VLv8_DIM20 (antibody, V domains shown)
VH: B1 VH
VL: B1 VL with D30S, K56I, R59G
B14: hu9F5VHv9/hu9F5VLv8_DIM26 (antibody, V domains shown)
VH: B1 VH
VL: B1 VL with D30I, Q42I, K56E, I97L
B15: hu9F5VHv9/hu9F5VLv8_DIM30 (antibody, V domains shown)
VH: B1 VH
VL: B1 VL with D30S, K56G, R59L
B16: hu9F5VHv9/hu9F5VLv8_DIM22 (antibody, V domains shown)
VH: B1 VH
VL: B1 VL with D30S, K56E
B17: hu9F5VHv9/hu9F5VLv8_DIM24 (antibody, V domains shown)
VH: B1 VH
VL: B1 VL with D30G, Q42I, K56E
B18: hu9F5VHv9/hu9F5VLv8_DIM28 (antibody, V domains shown)
VH: B1 VH
VL: B1 VL with D30S, Q42L, K56G
B19: hu9F5VHv9/hu9F5VLv8_DIM23 (antibody, V domains shown)
VH: B1 VH
VL: B1 VL with D30G, K56E, R59G
B20: hu9F5VHv9/hu9F5VLv8_DIM8 (antibody, V domains shown)
VH: B1 VH
VL: B1 VL with D30G
B21: hu9F5VHv9/hu9F5VLv8_DIM10 (antibody, V domains shown)
VH: B1 VH
VL: B1 VL with D30S, R59G
B22: hu9F5VHv9/hu9F5VLv8_DIM11 (antibody, V domains shown)
VH: B1 VH
VL: B1 VL with D30G, Q42G, K56G
B23: hu9F5VHv9/hu9F5VLv8_DIM17 (antibody, V domains shown)
VH: B1 VH
VL: B1 VL with D30S, Q42G, K56G, R59T
B24: hu9F5VHv9/hu9F5VLv8_DIM18 (antibody, V domains shown)
VH: B1 VH
VL: B1 VL with Q42G, K56G

Changes are numbered by the printed parent chain.

T1 sequence (P10636 other isoform, or with tags, fused parts or gaps limits assumed): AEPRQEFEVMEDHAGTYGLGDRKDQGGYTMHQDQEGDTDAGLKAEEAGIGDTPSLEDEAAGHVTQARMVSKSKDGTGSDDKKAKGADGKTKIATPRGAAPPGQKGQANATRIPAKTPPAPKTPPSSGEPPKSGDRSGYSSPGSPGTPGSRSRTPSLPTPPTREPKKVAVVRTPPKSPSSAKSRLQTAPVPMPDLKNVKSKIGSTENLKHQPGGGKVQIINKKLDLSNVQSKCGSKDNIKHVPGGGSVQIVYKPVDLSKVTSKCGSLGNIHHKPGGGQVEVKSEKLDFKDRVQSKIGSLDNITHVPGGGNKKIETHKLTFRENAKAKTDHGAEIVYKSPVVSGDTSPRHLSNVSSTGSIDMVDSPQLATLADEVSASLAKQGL

This assay addresses T1, recombinant human 4R0N tau (human, UniProt P10636 2-758).
T1 construct: also called recombinant 4R0N human tau; P10636-6
The assay is described as follows: SPR Biacore T200; antibody captured by anti-human Fc; tau as analyte; global 1:1 fit. The method, then:
Target binding analysis was performed using a Biacore T200 to compare the binding affinity of humanized 9F5 variants to recombinant human 4R0N tau. Anti-Human Fc antibody was immobilized on sensor chip CM3 via amine coupling, and humanized 9F5 variants were captured to equivalent levels. Various concentrations of recombinant 4R0N human tau (ranging from 0.02 nM to 12.5 nM) were passed over the captured ligand at 50 μL/min in running buffer (HBS+0.05% P-20, 1 mg/mL BSA) for 180 seconds association/420 seconds dissociation as a single cycle. Data was blank subtracted to both an irrelevant sensor not containing antibody and 0 nM analyte concentration. Analysis was performed using a global 1:1 fit with Biacore Evaluation software.
(In general: SPR reads the build-up and loss of mass on a sensor chip optically.)
For the molecule B1, the Kd turned out to be 0.18 nM, the koff was 0.000424 s⁻¹ and the kon came to 2.36e+06 M⁻¹ s⁻¹.

Turning to B2, the dissociation constant (Kd) is 0.27 nM, the koff stood at 0.000534 s⁻¹ and the association rate constant (kon) was determined as 1.98e+06 M⁻¹ s⁻¹.

For B3, the dissociation constant (Kd) amounted to 858 nM, the koff was found to be 1.12 s⁻¹ and the kon stood at 1.31e+06 M⁻¹ s⁻¹.

Turning to B4, the Kd is 0.142 nM, the koff stood at 0.000188 s⁻¹ and the kon was found to be 1.33e+06 M⁻¹ s⁻¹.

As for B5, the Kd amounted to 0.221 nM, the koff was determined as 0.000429 s⁻¹ and the kon was determined as 1.94e+06 M⁻¹ s⁻¹.

On to B6, for which the Kd was determined as 0.873 nM, the off-rate constant (koff) was 0.000732 s⁻¹ and the kon worked out at 839000 M⁻¹ s⁻¹.

As to B7, the dissociation constant Kd was 0.597 nM, the koff is 0.00215 s⁻¹ and the kon turned out to be 3.61e+06 M⁻¹ s⁻¹.

Take B8: the Kd was 0.16 nM, the koff came to 0.000385 s⁻¹ and the kon was determined as 2.41e+06 M⁻¹ s⁻¹.

B9: the equilibrium dissociation constant (Kd) was found to be 0.266 nM, the off-rate (koff) stood at 0.000439 s⁻¹ and the on-rate (kon) was 1.65e+06 M⁻¹ s⁻¹.

For the molecule B10, the Kd came to 3.15 nM, the off-rate (koff) is 0.0409 s⁻¹ and the association rate constant (kon) amounted to 1.3e+07 M⁻¹ s⁻¹.

Take B11: the Kd stood at 0.355 nM, the off-rate constant (koff) worked out at 0.000808 s⁻¹ and the kon was 2.27e+06 M⁻¹ s⁻¹.

For the molecule B12, the Kd was 5.07 nM, the off-rate (koff) turned out to be 0.0116 s⁻¹ and the on-rate constant (kon) is 2.29e+06 M⁻¹ s⁻¹.

For B13, the Kd stood at 12.3 nM, the koff is 0.0694 s⁻¹ and the kon was found to be 5.64e+06 M⁻¹ s⁻¹.

Take B14: the Kd was determined as 1.04 nM, the off-rate constant (koff) turned out to be 0.004 s⁻¹ and the kon was determined as 3.84e+06 M⁻¹ s⁻¹.

In the case of B15, the Kd was found to be 0.438 nM, the off-rate constant (koff) stood at 0.000447 s⁻¹ and the kon is 1.02e+06 M⁻¹ s⁻¹.

For the molecule B16, the Kd was 0.39 nM, the dissociation rate constant (koff) came to 0.000878 s⁻¹ and the kon amounted to 2.25e+06 M⁻¹ s⁻¹.

Regarding B17, the Kd was found to be 0.454 nM, the koff worked out at 0.000993 s⁻¹ and the kon is 2.19e+06 M⁻¹ s⁻¹.

For B18, the equilibrium dissociation constant (Kd) was found to be 0.0692 nM, the dissociation rate constant (koff) was found to be 0.000217 s⁻¹ and the kon is 3.13e+06 M⁻¹ s⁻¹.

For B19, the Kd was determined as 1.24 nM, the koff was 0.0832 s⁻¹ and the on-rate constant (kon) came out at 6.69e+07 M⁻¹ s⁻¹.

B20: the dissociation constant (Kd) was 0.435 nM, the koff worked out at 0.000576 s⁻¹ and the kon is 1.32e+06 M⁻¹ s⁻¹.

On to B21, for which the Kd came to 3.92 nM, the off-rate constant (koff) was 0.0741 s⁻¹ and the kon worked out at 1.89e+07 M⁻¹ s⁻¹.

Turning to B22, the dissociation constant Kd amounted to 0.0772 nM, the koff was found to be 0.00011 s⁻¹ and the kon worked out at 1.42e+06 M⁻¹ s⁻¹.

Regarding B23, the Kd is 0.128 nM, the koff worked out at 0.000326 s⁻¹ and the kon amounted to 2.54e+06 M⁻¹ s⁻¹.

Consider B24, for which the Kd was 0.0447 nM, the koff was found to be 9.39e-05 s⁻¹ and the kon was determined as 2.1e+06 M⁻¹ s⁻¹.

Broadly, the Kd is the equilibrium constant for the complex coming apart. Usually koff stands for the rate constant with which the complex falls apart. Broadly, the kon is the second-order rate constant of association.
